Test results from US20250019439A1 (Adimab, published 2025).
Like-named read-outs stand apart in the source and are kept apart here.

Columns and labels:
ADI-26916 IgG = biological target: T1, ADI-26916 IgG; test: SPR Carterra avidity, CHO anti-ID
T1 construct: anti-CD3 IgG
Experimental: (§1) Kinetic analysis was conducted at 25° C. in an HBSTE running buffer system (Carterra Cat #3630) using a Carterra LSA (Carterra USA, Salt Lake City, UT). The sample compartment was maintained at 20° C. for the duration of each experiment.
(§2) For antibody capture experiments, a goat anti-human Fc antibody (Jackson ImmunoResearch) was covalently coupled to an HC30M sensor chip surface via standard amine coupling (1:1 EDC:NHS) and then blocked with ethanolamine (1.0 M, pH 8.5). Covalent coupling steps were performed in 25 mM MES buffer (Carterra, Cat #3625) plus 0.05% Tween20. The anti-CD3 antibodies (100 nM in running buffer) were flowed over discrete regions of interest on the chip surface for 5 minutes. […] Dissociation of the anti-idiotype antibodies was monitored for 300s. Several blank buffer samples were injected over the entire chip surface at the start of each non-regenerative kinetic cycle. The preceding blank buffer injection was used for blank surface subtraction. At the end of each non-regenerative kinetic cycle, all surfaces were regenerated via two 30s injections of 10 mM glycine, pH 1.7.
(§3) In Tables 10A-10C, anti-CD3 antibodies are listed by ADI number or CTL number in the first column. […] CTL-62223 is mosunetuzumab, CTL-62227 is odronextamab, CTL-62228 is glofitamab, and CTL-62240 is ONO-4685. […] “W.B.” means weak binding under the conditions of this assay and thus a KD was unable to be assigned. “N.B.” means no binding under the conditions of this assay.

ADI-74968 = biological target: T2, ADI-74968; test: SPR Carterra avidity, CHO anti-ID
T2 construct: pH-dependent anti-CD3 antibody made in CHO cells
T2 sequence (VH, as listed by the source, chain 1 of 2): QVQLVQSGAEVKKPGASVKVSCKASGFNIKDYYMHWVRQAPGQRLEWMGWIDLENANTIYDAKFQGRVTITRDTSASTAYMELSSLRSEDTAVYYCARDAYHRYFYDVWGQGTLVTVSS
T2 sequence (VL, as listed by the source, chain 2 of 2): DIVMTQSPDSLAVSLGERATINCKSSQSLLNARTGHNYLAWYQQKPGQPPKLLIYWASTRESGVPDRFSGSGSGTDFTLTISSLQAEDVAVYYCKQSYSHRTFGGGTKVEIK
Experimental: as §1, §2, §3

ADI-76359 = biological target: T3, ADI-76359; test: SPR Carterra avidity, CHO anti-ID
T3 construct: anti-CD3 antibody made in CHO cells, captured by anti-human Fc
T3 sequence (VH, as listed by the source, chain 1 of 2): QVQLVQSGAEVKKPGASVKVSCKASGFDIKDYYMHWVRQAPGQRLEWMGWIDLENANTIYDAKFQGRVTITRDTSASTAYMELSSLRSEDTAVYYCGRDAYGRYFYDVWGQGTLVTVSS
T3 sequence (VL, as listed by the source, chain 2 of 2): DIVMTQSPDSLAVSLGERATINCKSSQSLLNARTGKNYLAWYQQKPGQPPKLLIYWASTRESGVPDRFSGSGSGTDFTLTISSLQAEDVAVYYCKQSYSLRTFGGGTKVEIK
Experimental: as §1, §2, §3

ADI-26913 IgG = biological target: T4, ADI-26913 IgG; test: SPR Carterra avidity, yeast anti-ID
T4 construct: anti-CD3 IgG
T4 sequence (VH, as listed by the source limits assumed, chain 1 of 2): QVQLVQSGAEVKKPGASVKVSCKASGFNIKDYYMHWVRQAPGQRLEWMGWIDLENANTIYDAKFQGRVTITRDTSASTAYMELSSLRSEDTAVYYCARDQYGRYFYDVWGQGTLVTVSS
T4 sequence (VL, as listed by the source limits assumed, chain 2 of 2): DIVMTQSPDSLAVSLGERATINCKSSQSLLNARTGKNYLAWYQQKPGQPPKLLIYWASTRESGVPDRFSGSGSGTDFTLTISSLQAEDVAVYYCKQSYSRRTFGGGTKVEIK
Method in brief: (§4)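 Measured at 25° C in HBSTE running buffer on a Carterra LSA; anti-CD3 antibodies (100 nM) were captured for 5 min on an amine-coupled goat anti-human Fc HC30M chip. Anti-idiotype dissociation was followed for 300s, and double-referenced sensorgrams were fitted to a 1:1 binding model.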

ADI-26919 = biological target: T5, ADI-26919; test: SPR Carterra avidity, yeast anti-ID
T5 construct: anti-CD3 antibody made in CHO cells, captured by anti-human Fc
T5 sequence (VH, as listed by the source limits assumed, chain 1 of 2): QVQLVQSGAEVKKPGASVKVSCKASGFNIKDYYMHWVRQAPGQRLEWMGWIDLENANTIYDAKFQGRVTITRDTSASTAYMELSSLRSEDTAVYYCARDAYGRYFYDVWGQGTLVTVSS
Method in brief: as §4

ADI-26920 IgG = biological target: T6, ADI-26920 IgG; test: SPR Carterra avidity, yeast anti-ID
T6 construct: anti-CD3 IgG
T6 sequence (VH, as listed by the source limits assumed, chain 1 of 2): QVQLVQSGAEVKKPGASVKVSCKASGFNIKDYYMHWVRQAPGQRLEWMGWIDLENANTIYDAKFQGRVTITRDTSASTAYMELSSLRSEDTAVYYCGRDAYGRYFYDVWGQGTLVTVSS
Method in brief: as §4

ADI-26924 = biological target: T7, ADI-26924; test: SPR Carterra avidity, yeast anti-ID
T7 construct: anti-CD3 antibody made in CHO cells, captured by anti-human Fc
T7 sequence (VH, as listed by the source, chain 1 of 2): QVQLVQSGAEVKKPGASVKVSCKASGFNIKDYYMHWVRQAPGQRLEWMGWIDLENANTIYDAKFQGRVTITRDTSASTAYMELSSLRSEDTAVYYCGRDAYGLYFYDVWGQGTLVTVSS
Method in brief: as §4

ADI-26943 = biological target: T8, ADI-26943; test: SPR Carterra avidity, yeast anti-ID
T8 construct: anti-CD3 antibody made in CHO cells, captured by anti-human Fc
T8 sequence (VH, as listed by the source, chain 1 of 2): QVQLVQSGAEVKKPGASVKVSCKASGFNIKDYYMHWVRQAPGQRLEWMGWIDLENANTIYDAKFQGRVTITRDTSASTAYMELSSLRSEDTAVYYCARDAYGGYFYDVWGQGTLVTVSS
T8 sequence (VL, as listed by the source, chain 2 of 2): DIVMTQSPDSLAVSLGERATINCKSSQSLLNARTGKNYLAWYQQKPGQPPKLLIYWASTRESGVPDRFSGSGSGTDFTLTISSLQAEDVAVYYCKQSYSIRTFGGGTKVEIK
Method in brief: as §4

ADI-76357 = biological target: T9, ADI-76357; test: SPR Carterra avidity, yeast anti-ID
T9 construct: anti-CD3 antibody made in CHO cells, captured by anti-human Fc
T9 sequence (VH, as listed by the source, chain 1 of 2): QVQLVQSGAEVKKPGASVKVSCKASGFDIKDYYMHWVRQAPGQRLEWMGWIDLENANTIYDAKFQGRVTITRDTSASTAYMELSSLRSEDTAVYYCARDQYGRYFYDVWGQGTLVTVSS
Method in brief: as §4

ADI-22523 Fab [1] = biological target: T10, ADI-22523 Fab; test: BLI; tip anti-ID IgG, solution ADI-22523 Fab
T10 construct: anti-CD3 Fab by papain digestion of the IgG
T10 sequence (VH, as listed by the source limits assumed, chain 1 of 2): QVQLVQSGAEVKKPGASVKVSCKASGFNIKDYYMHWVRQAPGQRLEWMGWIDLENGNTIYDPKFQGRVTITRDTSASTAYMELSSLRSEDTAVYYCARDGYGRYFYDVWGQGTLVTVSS
T10 sequence (VL, as listed by the source limits assumed, chain 2 of 2): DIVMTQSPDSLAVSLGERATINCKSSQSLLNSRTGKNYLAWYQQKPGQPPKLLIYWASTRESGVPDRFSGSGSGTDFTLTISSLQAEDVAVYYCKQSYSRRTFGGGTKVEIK
Method in brief: (§5)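 Bio-layer interferometry with anti-ID IgG loaded on AHC tips. KD (koff/kon) from 1:1 binding model fit; avid format.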

ADI-22523 IgG = biological target: T11, ADI-22523 IgG; test: BLI; tip anti-ID IgG, solution ADI-22523 IgG
T11 construct: anti-CD3 IgG
Method in brief: as §5

ADI-22523 Fab [2] = biological target: T10, ADI-22523 Fab; test: BLI; tip ADI-34134 IgG, solution anti-CD3 Fab
Experimental: (§6) ForteBio affinity measurements were performed generally as previously described (Estep et al., MAbs. 2013 5(2):270-8). Briefly, ForteBio affinity measurements were performed by loading antibody IgG or Fabs on-line onto AHC sensors. Sensors were equilibrated off-line in assay buffer for 30 minutes and then monitored on-line for 60 seconds for baseline establishment. For avid binding measurement, sensors with loaded antibodies were exposed to IgG or Fab solutions for 3 minutes, afterwards they were transferred to assay buffer for 3 minutes for off-rate measurement. Kinetics data were fit using a 1:1 binding model in the data analysis software provided by ForteBio to obtain equilibrium dissociation constant (KD=koff/kₒₙ) values. In each column, tip-immobilized antibodies are listed first and solution antibodies second.
(§7) CTL-19613 is an IgG1 antibody prepared with anti-CD3 variable domains corresponding with those of clone 12C described in United States Publication Number US 2010/0183615 (e.g., see paragraphs 469-479 and FIG. 25 thereof), which also make up the CD3 binding domain of the bispecific antibody pasotuxizumab. […] In each column, tip-immobilized antibodies are listed first and solution antibodies second.

ADI-26913 Fab [3] = biological target: T12, ADI-26913 Fab; test: BLI; tip ADI-34134 IgG, solution anti-CD3 Fab
T12 construct: anti-CD3 Fab by papain digestion of the IgG
Experimental: as §6, §7

ADI-26941 Fab [4] = biological target: T13, ADI-26941 Fab; test: BLI; tip ADI-34134 IgG, solution anti-CD3 Fab
T13 construct: anti-CD3 Fab by papain digestion of the IgG
T13 sequence (VH, as listed by the source limits assumed, chain 1 of 2): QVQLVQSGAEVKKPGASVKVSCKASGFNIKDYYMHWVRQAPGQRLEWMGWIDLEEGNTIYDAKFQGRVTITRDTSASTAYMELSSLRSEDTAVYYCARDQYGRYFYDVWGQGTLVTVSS
Experimental: as §6, §7

CTL-19613 Fab = biological target: T14, CTL-19613 Fab; test: BLI; tip ADI-34134 IgG, solution anti-CD3 Fab
T14 construct: anti-CD3 Fab by papain digestion of the IgG1
Experimental: as §6, §7

ADI-22523 Fab [5] = biological target: T10, ADI-22523 Fab; test: BLI; tip ADI-34134 IgG, solution anti-CD3 Fab; remark: listed apart in the source
Experimental: as §6
(§8) In each column, tip-immobilized antibodies are listed first and solution antibodies second.

ADI-26906 Fab = biological target: T15, ADI-26906 Fab; test: BLI; tip ADI-34134 IgG, solution anti-CD3 Fab
T15 construct: anti-CD3 Fab by papain digestion of the IgG
Experimental: as §6, §8

ADI-26913 Fab [6] = biological target: T12, ADI-26913 Fab; test: BLI; tip ADI-34134 IgG, solution anti-CD3 Fab; remark: listed apart in the source
Experimental: as §6, §8

ADI-26916 Fab = biological target: T16, ADI-26916 Fab; test: BLI; tip ADI-34134 IgG, solution anti-CD3 Fab
T16 construct: anti-CD3 Fab by papain digestion of the IgG
T16 sequence (VH, as listed by the source, chain 1 of 2): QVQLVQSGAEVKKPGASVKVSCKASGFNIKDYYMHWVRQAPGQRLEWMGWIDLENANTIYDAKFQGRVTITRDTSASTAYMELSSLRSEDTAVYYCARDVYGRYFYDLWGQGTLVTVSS
Experimental: as §6, §8

ADI-26921 Fab = biological target: T17, ADI-26921 Fab; test: BLI; tip ADI-34134 IgG, solution anti-CD3 Fab
T17 construct: anti-CD3 Fab by papain digestion of the IgG
T17 sequence (VH, as listed by the source limits assumed, chain 1 of 2): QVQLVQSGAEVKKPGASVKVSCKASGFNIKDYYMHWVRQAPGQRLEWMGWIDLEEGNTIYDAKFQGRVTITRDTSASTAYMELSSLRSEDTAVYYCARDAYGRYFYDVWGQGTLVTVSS
Experimental: as §6, §8

ADI-26927 Fab = biological target: T18, ADI-26927 Fab; test: BLI; tip ADI-34134 IgG, solution anti-CD3 Fab
T18 construct: anti-CD3 Fab by papain digestion of the IgG
T18 sequence (VH, as listed by the source limits assumed, chain 1 of 2): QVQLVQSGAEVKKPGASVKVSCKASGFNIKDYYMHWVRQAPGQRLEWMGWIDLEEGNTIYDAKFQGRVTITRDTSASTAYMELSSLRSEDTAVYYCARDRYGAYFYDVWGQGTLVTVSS
Experimental: as §6, §8

ADI-26928 Fab = biological target: T19, ADI-26928 Fab; test: BLI; tip ADI-34134 IgG, solution anti-CD3 Fab
T19 construct: anti-CD3 Fab by papain digestion of the IgG
T19 sequence (VH, as listed by the source limits assumed, chain 1 of 2): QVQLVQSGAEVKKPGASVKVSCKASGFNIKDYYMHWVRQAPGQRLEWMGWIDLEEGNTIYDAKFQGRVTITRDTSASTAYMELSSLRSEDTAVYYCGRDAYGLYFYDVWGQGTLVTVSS
Experimental: as §6, §8

ADI-26941 Fab [7] = biological target: T13, ADI-26941 Fab; test: BLI; tip ADI-34134 IgG, solution anti-CD3 Fab; remark: listed apart in the source
Experimental: as §6, §8

ADI-26954 Fab = biological target: T20, ADI-26954 Fab; test: BLI; tip ADI-34134 IgG, solution anti-CD3 Fab
T20 construct: anti-CD3 Fab by papain digestion of the IgG
T20 sequence (VH, as listed by the source limits assumed, chain 1 of 2): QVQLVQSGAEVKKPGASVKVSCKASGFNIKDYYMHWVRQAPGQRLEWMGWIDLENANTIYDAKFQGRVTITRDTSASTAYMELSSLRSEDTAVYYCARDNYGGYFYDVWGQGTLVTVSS
T20 sequence (VL, as listed by the source limits assumed, chain 2 of 2): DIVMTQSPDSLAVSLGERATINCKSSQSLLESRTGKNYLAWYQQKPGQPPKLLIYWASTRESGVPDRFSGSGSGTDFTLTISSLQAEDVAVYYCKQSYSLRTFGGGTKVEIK
Experimental: as §6, §8

ADI-26906 IgG = biological target: T21, ADI-26906 IgG; test: SPR Carterra avidity, CHO anti-ID, *koff limit
T21 construct: anti-CD3 IgG
Experimental: as §1, §2
For data processing and fitting, sensorgrams were double reference subtracted with a baseline drift correction of 4 RU. Sensorgrams were y-aligned and baseline corrected, filtered and cropped to include only the association and dissociation steps. Data was fitted to a 1:1 binding model using Carterra Kinetics Data Analysis software version 1.7.1.3055.

B1: ADI-34134 IgG (antibody, V domains shown)
VH: QVQLVQSGAEVKKPGSSVKVSCKASGGTFSSYAISWVRQAPGQGLEWMGGIIPIFGTANYAQKFQGRVTITADESTSTAYMELSSLRSEDTAVYYCARGAPNYYGSGGYDDGWFDPWGQGTLVTVSS
VL: EIVLTQSPGTLSLSPGERATLSCRASQSVSSDYLAWYQQKPGQAPRLLIYGASSRATGIPDRFSGSGSGTDFTLTISRLEPEDFAVYYCQQFGRVPTFGGGTKVEIK
In the case of B1, the Kd (ADI-26916 IgG) is reported as 0.17 nM, the Kd (ADI-74968) is reported as 0.78 nM and the Kd (ADI-76359) is reported as 0.15 nM. For the same binder, the Kd (ADI-26913 IgG) was 21 nM, the Kd (ADI-26919) was 9.1 nM and the Kd (ADI-26920 IgG) was 16 nM. The Kd (ADI-26924) was 20 nM, the Kd (ADI-26943) was 13 nM and the Kd (ADI-76357) was 9.5 nM. It also gave a Kd (ADI-22523 Fab [1]) of 5.62 nM, a Kd (ADI-22523 IgG) of 0.46 nM and a Kd (ADI-22523 Fab [2]) of 4.46 nM. The Kd (ADI-26913 Fab [3]) was 86.5 nM, the Kd (ADI-26941 Fab [4]) was 112 nM and the binding result (CTL-19613 Fab) was “no binding”. It also gave a Kd (ADI-22523 Fab [5]) of 5.62 nM, a Kd (ADI-26906 Fab) of 17.8 nM and a Kd (ADI-26913 Fab [6]) of 79.8 nM. For the same binder, the Kd (ADI-26916 Fab) was 56.5 nM, the Kd (ADI-26921 Fab) was 185 nM and the Kd (ADI-26927 Fab) was 38.2 nM. It also gave a Kd (ADI-26928 Fab) of 31 nM, a Kd (ADI-26941 Fab [7]) of 138 nM and a Kd (ADI-26954 Fab) of 157 nM. It also gave a Kd (ADI-26906 IgG) of 0.18 nM.

B2: ADI-34145 IgG (antibody, V domains shown)
VH: EVQLLESGGGLVQPGGSLRLSCAASGFTFSSYAMSWVRQAPGKGLEWVSTISGSGGSTYYADSVKGRFTISRDNSKNTLYLQMNSLRAEDTAVYYCARLGGRRGSGSSYYYYYGMDVWGQGTTVTVSS
VL: not shown
notes: anti-ID IgG
In the case of B2, the Kd (ADI-26916 IgG) is reported as 17 nM, the Kd (ADI-74968) is reported as 41 nM and the Kd (ADI-76359) is reported as 8 nM. For the same binder, the Kd (ADI-26913 IgG) was 18 nM, the Kd (ADI-26919) was 18 nM and the Kd (ADI-26920 IgG) was 8.6 nM. The Kd (ADI-26924) was 17 nM, the Kd (ADI-26943) was 9.5 nM and the Kd (ADI-76357) was 23 nM. It also gave a Kd (ADI-22523 Fab [1]) of 4.13 nM, a Kd (ADI-22523 IgG) of 2.72 nM and a Kd (ADI-26906 IgG) of 6.4 nM.
